Source: patent publication US10245299B2, “Autoassembling peptides for the treatment of pulmonary bulla” (3-D MATRIX, LTD., priority 2014, dated 2019)

Experiments:
[1] = Appearance of 1.5% peptide solutions with various salts at room temperature; format: physicochemical; conditions: for Appearance: IEIK13 solution, room temperature
Protocol: The effect of salt ionic strength level on the properties of peptide solutions was evaluated to identify optimized salt ionic strength levels for the peptides as described herein. Increasing the salt ionic strength level of PuraMatrix® and other peptides may generally improve its function and mechanical strength for various clinical applications. To adjust the salt ionic strength of the peptide solutions by way of example, various salt buffer solutions including NaCl, KCl, MgCl2, CaCl2 and DPBS (10×) were added to 2 mL of 1.5% peptide solutions.

[2] = Rheological properties at adjusted salt ionic strength; format: physicochemical
Protocol: Based on the visual observation of the effect of salt ionic strength on the properties of the peptide solutions, the effect on the rheological properties of the peptide solutions after adjusting their ionic strength level with NaCl to 0.7 M (PuraMatrix®), 0.2 M (KLD12) or 0.02 M (IEIK13), which is closely below the critical ionic strength at which each peptide becomes cloudy, was evaluated. If the ionic strength levels with NaCl of peptide solutions are higher than 0.9 M (PuraMatrix®), 0.3 M (KLD12) or 0.03 M (IEIK13), the peptide solution begin phase separation becoming cloudy and weak. The rheological property of PuraMatrix®, KLD12 and IEIK13 solutions was higher after adjusting their ionic strength level with NaCl to 0.7 M (PuraMatrix®), 0.2 M (KLD12) or 0.02 M (IEIK13), The results are shown in FIG. 10 for KLD12 1%, FIG. 11 for IEIK13 1%, and FIG. 12 for PuraMatrix® 1%, respectively. Frequency sweep tests were performed from 1 rad/s to 10 rad/s at 1 Pa.
Based on the results of the effect on the rheological properties of the peptide solutions after adjusting their ionic strength level with NaCl to 0.7 M (PuraMatrix®), 0.2 M (KLD12) or 0.02 M (IEIK13), the effect on the rheological properties of the peptide solution at various salt ionic strengths was evaluated. […] The results are shown in FIG. 13 for PuraMatrix® 1% solution and in FIG. 14 for IEIK13 1% solution. Frequency sweep tests were performed from 1 rad/sec to 10 rad/sec at 1 Pa and the storage modulus at 1 rad/sec was selected for data.
Based on the results of the effect on the rheological properties of the peptide solutions after adjusting their ionic strength levels, the effect on the rheological properties of the peptide hydrogels after DMEM treatment for 10 min was evaluated. […] The results are shown in FIG. 15 for PuraMatrix® 1% hydrogels and in FIG. 16 for IEIK13 1% hydrogels, both after DMEM treatment for 10 min. Frequency sweep tests were performed from 1 rad/sec to 10 rad/sec at 1 Pa and the storage modulus at 1 rad/sec was selected for data.
Based on the results of the effect on the rheological properties of the peptide solutions and hydrogels after adjusting their ionic strength levels with NaCl, the effect of various salts (KCl, MgCl2, and CaCl2) was also evaluated. The rheological property of PuraMatrix® solutions increases with ionic strength adjustment at 0.15 M of all the salts. Increases of the rheological property of PuraMatrix® solutions with various salts were not predominantly different. However, increases of the rheological property of PuraMatrix® solutions may vary depending on the salting out constant, K of each salt. Constant K is a constant in Cohen's equation: log S=B−KI, where S is solubility, B is idealized solubility, K is salting out constant, and I is ionic strength. With a higher value of constant K and ionic strength of salts, solubility of the peptide may decrease resulting in strong peptide self-assembly with increased hydrophobic effect and higher rheological properties of the peptide solution. The constant K of NaCl may be higher than the other salts. […] The results are shown in FIG. 17 for PuraMatrix® 1% solution before DMEM treatment, and in FIG. 18 for PuraMatrix® 1% hydrogels after DMEM treatment for 10 min.
In accordance with one or more embodiments, IEIK13, KLD12, and PuraMatrix® may be dissolved both in salt buffer such as NaCl and at an elevated pH level adjusted with alkali salt buffer such as NaOH to keep their salt ionic strength under their critical salt points as well as their pH level to about 2.5˜4.0, so that they may have stiffer properties. With respect to PuraMatrix®, […] and IEIK13, the peptide solutions are still clear with 0.9% NaCl (ionic strength: 0.15 M) at pH 3.4 adjusted with NaOH. […] The effect of salt ionic strength and pH adjustment on the rheological properties of PuraMatrix® 2.5% solution are shown in FIG. 20. […]

Ile-Glu-Ile-Lys-Ile-Glu-Ile-Lys-Ile-Glu-Ile-Lys-Ile [IEIK13]
Appearance ([1]; conc. 1.16%, KCl 0.045 M, ionic strength 0.045 M): Cloudy, phase-separated | Appearance ([1]; conc. 1.2%, KCl 0.04 M, ionic strength 0.04 M): Slightly cloudy, brittle | Appearance ([1]; conc. 1.2%, NaCl 0.04 M, ionic strength 0.04 M): Cloudy, phase-separated | Appearance ([1]; conc. 1.24%, KCl 0.035 M, ionic strength 0.035 M): Slightly cloudy, brittle gel | Appearance ([1]; conc. 1.24%, NaCl 0.035 M, ionic strength 0.035 M): Slightly cloudy, brittle gel | Appearance ([1]; conc. 1.27%, KCl 0.03 M, ionic strength 0.03 M): Clear, thick, stiffer gel | Appearance ([1]; conc. 1.27%, NaCl 0.03 M, ionic strength 0.03 M): Slightly cloudy, thick, stiffer gel | Appearance ([1]; conc. 1.31%, KCl 0.025 M, ionic strength 0.025 M): Clear, thick, stiffer gel | Appearance ([1]; conc. 1.31%, NaCl 0.025 M, ionic strength 0.025 M): Clear, thick, stiffer gel | Appearance ([1]; conc. 1.35%, KCl 0.02 M, ionic strength 0.02 M): Clear, thick, stiffer gel | Appearance ([1]; conc. 1.35%, NaCl 0.02 M, ionic strength 0.02 M): Clear, thick, stiffer gel | Appearance ([1]; conc. 1.36%, CaCl2 0.0183 M, ionic strength 0.055 M): Cloudy, phase-separated | Appearance ([1]; conc. 1.36%, MgCl2 0.0183 M, ionic strength 0.055 M): Cloudy, phase-separated | Appearance ([1]; conc. 1.37%, CaCl2 0.0167 M, ionic strength 0.05 M): Slightly cloudy, brittle gel | Appearance ([1]; conc. 1.37%, MgCl2 0.0167 M, ionic strength 0.05 M): Slightly cloudy, brittle gel | Appearance ([1]; conc. 1.39%, CaCl2 0.015 M, ionic strength 0.045 M): Slightly cloudy, thick, stiffer gel | Appearance ([1]; conc. 1.39%, KCl 0.015 M, ionic strength 0.015 M): Clear, thick, stiffer gel | Appearance ([1]; conc. 1.39%, MgCl2 0.015 M, ionic strength 0.045 M): Slightly cloudy, stiffer gel | Appearance ([1]; conc. 1.39%, NaCl 0.015 M, ionic strength 0.015 M): Clear, thick, stiffer gel | Appearance ([1]; conc. 1.40%, CaCl2 0.0133 M, ionic strength 0.04 M): Slightly cloudy, thick, stiffer gel | Appearance ([1]; conc. 1.40%, MgCl2 0.0133 M, ionic strength 0.04 M): Slightly cloudy, thick, stiffer gel | Appearance ([1]; conc. 1.41%, CaCl2 0.0117 M, ionic strength 0.035 M): Clear, thick, stiffer gel | Appearance ([1]; conc. 1.41%, MgCl2 0.0117 M, ionic strength 0.035 M): Clear, thick, stiffer gel | Appearance ([1]; conc. 1.43%, CaCl2 0.01 M, ionic strength 0.03 M): Clear, thick, stiffer gel | Appearance ([1]; conc. 1.43%, KCl 0.01 M, ionic strength 0.01 M): Clear, thick, stiffer gel | Appearance ([1]; conc. 1.43%, MgCl2 0.01 M, ionic strength 0.03 M): Clear, thick, stiffer gel | Appearance ([1]; conc. 1.43%, NaCl 0.01 M, ionic strength 0.01 M): Clear, thick, stiffer gel | Appearance ([1]; conc. 1.44%, CaCl2 0.0083 M, ionic strength 0.025 M): Clear, thick, stiffer gel | Appearance ([1]; conc. 1.44%, MgCl2 0.0083 M, ionic strength 0.025 M): Clear, thick, stiffer gel | Appearance ([1]; conc. 1.45%, CaCl2 0.0067 M, ionic strength 0.02 M): Clear, thick, stiffer gel | Appearance ([1]; conc. 1.45%, MgCl2 0.0067 M, ionic strength 0.02 M): Clear, thick, stiffer gel | Appearance ([1]; conc. 1.46%, CaCl2 0.005 M, ionic strength 0.015 M): Clear, thick, stiffer gel | Appearance ([1]; conc. 1.46%, KCl 0.005 M, ionic strength 0.005 M): Clear, thick, stiffer gel | Appearance ([1]; conc. 1.46%, MgCl2 0.005 M, ionic strength 0.015 M): Clear, thick, stiffer gel | Appearance ([1]; conc. 1.46%, NaCl 0.005 M, ionic strength 0.005 M): Clear, thick, stiffer gel | Appearance ([1]; conc. 1.5%, CaCl2 0 M, ionic strength 0 M): Clear, thick gel | Appearance ([1]; conc. 1.5%, KCl 0 M, ionic strength 0 M): Clear, thick gel | Appearance ([1]; conc. 1.5%, MgCl2 0 M, ionic strength 0 M): Clear, thick gel | Appearance ([1]; conc. 1.5%, NaCl 0 M, ionic strength 0 M): Clear, thick gel | salt ionic strength increase that did not change the clear color of the solution (apparent stiffness increased) ([1]; depending on different salts, 1.5% peptide solutions): 0.025˜0.035 M | rheological property of hydrogels with ionic strength adjustment ([2]; 1% hydrogels after DMEM treatment for 10 min): did not significantly change with ionic strength adjustment up to 0.025 M, while decreases above 0.03 M | ionic strength adjustment up to which the rheological property of the solution increases (decreases above) ([2]; 1% solutions, storage modulus at 1 rad/sec): up to 0.03 M | ionic strength level with NaCl above which the solution begins phase separation becoming cloudy and weak ([2]; NaCl): > 0.03 M
